Test results reported in US20060241051A1 (Takeda / Millennium, published 2006).
Square brackets hold non-standard residues; d marks the D form. Primed or numbered codes have the meaning given here. Ends that are not written are not given here. * marks the point of attachment. Propanoyl(3-indol-3-yl) = O=C(CCc1c[nH]c2ccccc12)*; Phe(3-CF3) = N[C@@H](Cc1cccc(C(F)(F)F)c1)C(=O)O; Phe(3,4-F2) = N[C@@H](Cc1ccc(F)c(F)c1)C(=O)O; Phe(3-Cl) = N[C@@H](Cc1cccc(Cl)c1)C(=O)O; Phe(4-Cl) = N[C@@H](Cc1ccc(Cl)cc1)C(=O)O; Phe(4-NH2) = Nc1ccc(C[C@H](N)C(=O)O)cc1; Phe(2-Cl) = N[C@@H](Cc1ccccc1Cl)C(=O)O; Phe(3-F) = N[C@@H](Cc1cccc(F)c1)C(=O)O; 1Nal = N[C@@H](Cc1cccc2ccccc12)C(=O)O; 2Nal = N[C@@H](Cc1ccc2ccccc2c1)C(=O)O; Arg(Me) = CNC(=N)NCCC[C@H](N)C(=O)O; Diphenylacetyl′ = not defined here; d3Pal = N[C@H](Cc1cccnc1)C(=O)O; azaGly = NNC(=O)O

B1: Compound No. 258: [D-Pya(3)1,AzaGly7,Arg(Me)9]MS10 (peptide)
peptide: [d3Pal]NWNSF[azaGly]L[Arg(Me)]F-NH2
modifications: N-terminus assumed
SMILES: CNC(=N)NCCC[C@H](NC(=O)[C@H](CC(C)C)NC(=O)NNC(=O)[C@H](Cc1ccccc1)NC(=O)[C@H](CO)NC(=O)[C@H](CC(N)=O)NC(=O)[C@H](Cc1c[nH]c2ccccc12)NC(=O)[C@H](CC(N)=O)NC(=O)[C@H](N)Cc1cccnc1)C(=O)N[C@@H](Cc1ccccc1)C(N)=O
B2: Compound No. 245: [D-Tyr1,Nal(1)3,AzaGly7,Arg(Me)9]MS10 (peptide)
peptide: [dY]N[1Nal]NSF[azaGly]L[Arg(Me)]F-NH2
modifications: N-terminus assumed
SMILES: CNC(=N)NCCC[C@H](NC(=O)[C@H](CC(C)C)NC(=O)NNC(=O)[C@H](Cc1ccccc1)NC(=O)[C@H](CO)NC(=O)[C@H](CC(N)=O)NC(=O)[C@H](Cc1cccc2ccccc12)NC(=O)[C@H](CC(N)=O)NC(=O)[C@H](N)Cc1ccc(O)cc1)C(=O)N[C@@H](Cc1ccccc1)C(N)=O
B3: Compound No. 270: [D-Tyr1,Phe3,Ser-Phe5,AzaGly7,Arg(Me)9]MS10 (peptide)
peptide: [dY]NFNSFF[azaGly]L[Arg(Me)]F-NH2
notes: 11 residues; also called Endo-Phe5a-[D-Tyr1,Phe3,AzaGly7,Arg(Me)9]MS10
B4: Compound No. 271: des(1-2)-[AzaGly7,Arg(Me)9]MS10 (peptide)
peptide: WNSF[azaGly]L[Arg(Me)]F-NH2
modifications: N-terminus assumed
SMILES: CNC(=N)NCCC[C@H](NC(=O)[C@H](CC(C)C)NC(=O)NNC(=O)[C@H](Cc1ccccc1)NC(=O)[C@H](CO)NC(=O)[C@H](CC(N)=O)NC(=O)[C@@H](N)Cc1c[nH]c2ccccc12)C(=O)N[C@@H](Cc1ccccc1)C(N)=O
B5: Compound No. 265: des(1-3)-Indole-3-carbonyl-[AzaGly7,Arg(Me)9]MS10 (peptide)
peptide: {Indole‑3‑carbonyl}-NSF[azaGly]L[Arg(Me)]F-NH2
notes: also called des(1-3)-Indole-3-carboxyl-[AzaGly7,Arg(Me)9]MS10
B6: Compound No. 284: [D-Tyr1,D-Asn2,Thr3,AzaGly7,Arg(Me)9]MS10 (peptide)
peptide: [dY][dN]TNSF[azaGly]L[Arg(Me)]F-NH2
modifications: N-terminus assumed
SMILES: CNC(=N)NCCC[C@H](NC(=O)[C@H](CC(C)C)NC(=O)NNC(=O)[C@H](Cc1ccccc1)NC(=O)[C@H](CO)NC(=O)[C@H](CC(N)=O)NC(=O)[C@@H](NC(=O)[C@@H](CC(N)=O)NC(=O)[C@H](N)Cc1ccc(O)cc1)[C@@H](C)O)C(=O)N[C@@H](Cc1ccccc1)C(N)=O
B7: Compound No. 248: [D-Tyr1,Phe(3Cl) 3,AzaGly7,Arg(Me)9]MS10 (peptide)
peptide: [dY]N[Phe(3-Cl)]NSF[azaGly]L[Arg(Me)]F-NH2
modifications: N-terminus assumed
SMILES: CNC(=N)NCCC[C@H](NC(=O)[C@H](CC(C)C)NC(=O)NNC(=O)[C@H](Cc1ccccc1)NC(=O)[C@H](CO)NC(=O)[C@H](CC(N)=O)NC(=O)[C@H](Cc1cccc(Cl)c1)NC(=O)[C@H](CC(N)=O)NC(=O)[C@H](N)Cc1ccc(O)cc1)C(=O)N[C@@H](Cc1ccccc1)C(N)=O
B8: Compound No. 246: [D-Tyr1,Nal(2) 3,AzaGly7,Arg(Me)9]MS10 (peptide)
peptide: [dY]N[2Nal]NSF[azaGly]L[Arg(Me)]F-NH2
modifications: N-terminus assumed
SMILES: CNC(=N)NCCC[C@H](NC(=O)[C@H](CC(C)C)NC(=O)NNC(=O)[C@H](Cc1ccccc1)NC(=O)[C@H](CO)NC(=O)[C@H](CC(N)=O)NC(=O)[C@H](Cc1ccc2ccccc2c1)NC(=O)[C@H](CC(N)=O)NC(=O)[C@H](N)Cc1ccc(O)cc1)C(=O)N[C@@H](Cc1ccccc1)C(N)=O
B9: Compound No. 289: des(1)-[D-Pya(3) 2,AzaGly7,Arg(Me)9]MS10 (peptide)
peptide: [d3Pal]WNSF[azaGly]L[Arg(Me)]F-NH2
modifications: N-terminus assumed
SMILES: CNC(=N)NCCC[C@H](NC(=O)[C@H](CC(C)C)NC(=O)NNC(=O)[C@H](Cc1ccccc1)NC(=O)[C@H](CO)NC(=O)[C@H](CC(N)=O)NC(=O)[C@H](Cc1c[nH]c2ccccc12)NC(=O)[C@H](N)Cc1cccnc1)C(=O)N[C@@H](Cc1ccccc1)C(N)=O
notes: also called [D-Pya(3)2,AzaGly7,Arg(Me)9]MS10-(2-10)

Tests used:
[1] = molecular target: T1, human OT7T175 (metastin receptor) (human, UniProt Q969F8 1-398); test: cell-based or functional assay
T1 sequence (Q969F8 whole entry L364H): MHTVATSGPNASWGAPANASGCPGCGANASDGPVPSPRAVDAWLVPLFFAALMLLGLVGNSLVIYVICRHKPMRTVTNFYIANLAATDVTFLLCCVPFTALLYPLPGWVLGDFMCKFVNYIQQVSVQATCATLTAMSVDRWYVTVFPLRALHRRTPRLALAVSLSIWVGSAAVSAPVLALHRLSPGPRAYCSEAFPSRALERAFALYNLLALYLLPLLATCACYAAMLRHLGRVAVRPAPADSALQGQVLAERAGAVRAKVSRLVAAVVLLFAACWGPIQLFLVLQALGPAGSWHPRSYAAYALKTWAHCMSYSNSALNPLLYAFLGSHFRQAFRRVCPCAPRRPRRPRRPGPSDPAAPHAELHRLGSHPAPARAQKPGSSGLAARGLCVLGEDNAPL

[2] = molecular target: T1, human OT7T175 (metastin receptor); test: FMAT competition with Cy-5-labeled metastin (40-54), hOT7T175-expressed CHO cells
Method: h0T7T175-Expressed CHO cells were cultured in MEM-α medium (nucleic acid-free) containing 10% dialyzed serum. The medium was removed and the adherent cells were washed with PBS. Then, PBS containing 5 mM EDTA was added and the cells were scraped from a flask with a cell scraper. […] To each well of a 96-Well Black Clear Bottom Plate (Applied Biosystems, Inc.), 10 μL of assay buffer containing 1% dimethylsulfoxide was added to examine total binding, 10 μL of 10 μM non-labeled peptide (having the same amino acid sequence as that of the labeled one) solution diluted with assay buffer to examine non-specific binding, and 10 μL of a test compound diluted with assay buffer to examine the binding inhibition activity of the test compound, respectively. Furthermore, 90 μL each of the cell suspension was dispensed to each well. […] The specific binding is a value obtained by subtracting the non-specific binding from the total binding.

Row | Binder | intracellular Ca ion level-increasing activity (FLIPR) [1] | IC50 [2]
1 | {Indole‑3‑acetyl}-NSF[azaGly]L[Arg(Me)]F-NH2 [Compound No. 266: des(1-3)-Indole-3-acetyl-[AzaGly7,Arg(Me)9]MS10] | 2 specific activity to metastin (1-54) | 230 nM
2 | B1 | 2 specific activity to metastin (1-54) | 90 nM
3 | B2 | 1 specific activity to metastin (1-54) | 98 nM
4 | YNWNSFGLR[Phe(3-F)]-NH2 [Compound No. 197: [Phe(3F)10]MS10] | – | 170 nM
5 | B3 | 1 specific activity to metastin (1-54) | 15 nM
6 | B4 | 1 specific activity to metastin (1-54) | 120 nM
7 | YNWNSFGLR(Et)F-NH2 [Compound No. 220: [Arg(Et)9]MS10] | – | 330 nM
8 | {Propanoyl(3-indol-3-yl)}-NSF[azaGly]L[Arg(Me)]F-NH2 [Compound No. 260: des(1-3)-3-(3-Indolyl)propionyl-[AzaGly7,Arg(Me)9]MS10] | 5 specific activity to metastin (1-54) | 320 nM
9 | YNWNSFGLR[Phe(3,4-F2)]-NH2 [Compound No. 198: [Phe(3,4F2)10]MS10] | – | 170 nM
10 | B5 | 3 specific activity to metastin (1-54) | 95 nM
11 | {3‑Phenylpropionyl}-NSF[azaGly]L[Arg(Me)]F-NH2 [Compound No. 269: des(1-3)-3-Phenylpropionyl-[AzaGly7,Arg(Me)9]MS10] | 3 specific activity to metastin (1-54) | 470 nM
12 | [dY][2Nal]NSF[azaGly]L[Arg(Me)]F-NH2 [Compound No. 255: des(1)-[D-Tyr2,Nal(2) 3,AzaGly7,Arg(Me)9]MS10] | 1 specific activity to metastin (1-54) | 33 nM
13 | YNWNSFGLR[Phe(3-CF3)]-NH2 [Compound No. 200: [Phe(3CF3)10]MS10] | – | 340 nM
14 | {Diphenylacetyl′}-NSF[azaGly]L[Arg(Me)]F-NH2 [Compound No. 268: des(1-3)-Diphenylacetyl-[AzaGly7,Arg(Me)9]MS10] | 1 specific activity to metastin (1-54) | 550 nM
15 | [dY]NFNSF[azaGly]L[Arg(Me)]F-NH2 [Compound No. 244: [D-Tyr1,Phe3,AzaGly7,Arg(Me)9]MS10] | 1 specific activity to metastin (1-54) | 77 nM
16 | [dA]NWNSF[azaGly]L[Arg(Me)]F-NH2 [Compound No. 259: [D-Ala1,AzaGly7,Arg(Me)9]MS10] | 1 specific activity to metastin (1-54) | 250 nM
17 | [dY][dH]WNSF[azaGly]L[Arg(Me)]F-NH2 [Compound No. 288: [D-Tyr1,D-His2,AzaGly7,Arg(Me)9]MS10] | 1 specific activity to metastin (1-54) | 0.072 nM
18 | [dY][dN]FNSF[azaGly]L[Arg(Me)]F-NH2 [Compound No. 257: [D-Tyr1,D-Asn2,Phe3,AzaGly7,Arg(Me)9]MS10] | 3 specific activity to metastin (1-54) | 40 nM
19 | [dY][dS]WNSF[azaGly]L[Arg(Me)]F-NH2 [Compound No. 287: [D-Tyr1,D-Ser2,AzaGly7,Arg(Me)9]MS10] | 2 specific activity to metastin (1-54) | 2.3 nM
20 | [dY]N[Phe(2-Cl)]NSF[azaGly]L[Arg(Me)]F-NH2 [Compound No. 247: [D-Tyr1,Phe(2CL) 3,AzaGly7,Arg(Me)9]MS10] | 1 specific activity to metastin (1-54) | 45 nM
21 | B6 | 1 specific activity to metastin (1-54) | 34 nM
22 | B7 | 2 specific activity to metastin (1-54) | 58 nM
23 | [dY]N[Phe(4-NH2)]NSF[azaGly]L[Arg(Me)]F-NH2 [Compound No. 250: [D-Tyr1,Phe(4NH2) 3,AzaGly7,Arg(Me)9]MS10] | 1 specific activity to metastin (1-54) | 3.7 nM
24 | [dY]N[Phe(4-Cl)]NSF[azaGly]L[Arg(Me)]F-NH2 [Compound No. 249: [D-Tyr1,Phe(4Cl) 3,AzaGly7,Arg(Me)9]MS10] | 1 specific activity to metastin (1-54) | 150 nM
25 | {4‑(3-Indolyl)butyryl}-NSF[azaGly]L[Arg(Me)]F-NH2 [Compound No. 267: des(1-3)-4-(3-Indolyl)butyryl-[AzaGly7,Arg(Me)9]MS10] | 2 specific activity to metastin (1-54) | 360 nM
26 | B8 | 2 specific activity to metastin (1-54) | 7.1 nM
27 | [d3Pal]FNSF[azaGly]L[Arg(Me)]F-NH2 [Compound No. 256: des(1)-[D-Pya(3) 2,Phe3,AzaGly7,Arg(Me)9]MS10] | 1 specific activity to metastin (1-54) | 22 nM
28 | B9 | 1 specific activity to metastin (1-54) | 8.4 nM
29 | [dY]FNSF[azaGly]L[Arg(Me)]F-NH2 [Compound No. 254: des(1)-[D-Tyr2,Phe3,AzaGly7,Arg(Me)9]MS10] | 1 specific activity to metastin (1-54) | 11 nM
